Assay results published in patent publication US20230143003A1 (JULIUS MAXIMILIANS UNIVERSIT T W RZBURG, published 2023).
“And” between values parts separate entries of the source, which are not always exact repeats. Identical values can stand only once.

Assays:
[1] = molecular target: human ROR2 on cells (endogenous on T47D, 786-O and U266 cell lines); expressed on HEK 293 cells of the … (human, UniProt Q01974 34-943); experiment: cell-based or functional assay
[2] = molecular target: T1, human ROR1 on cells (MDA-MB-231, ROR2-, ROR1+; also 786-O, ROR2+, ROR1+) (human, UniProt Q01973 30-937); experiment: flow cytometry on MDA-MB-231 cells (ROR2-, ROR1+); biAb followed by Alexa Fluor 647-conjugated donkey anti-human F(ab')2 pAbs
T1 construct: whole, on cells

[3] = molecular target: T2, hROR2-Fc (human ROR2 Fc fusion protein) (human, UniProt Q01974 34-403, limits assumed); experiment: SPR, Biacore X100; hROR2-Fc captured, Fab injected
T2 construct: Given both as hROR2-Fc and as Fc-hROR2, so the order of the two parts is not certain; also called Fc-hROR2; not shown: human Fc part (captured by a mouse anti-human IgG CH2 / Fcγ mAb)

[4] = molecular target: T1, human ROR1 on cells (MDA-MB-231, ROR2-, …); experiment: flow cytometry on MDA-MB-231 cells (ROR2-, ROR1+); Fab followed by PE-conjugated goat anti-human F(ab')2 pAbs
[5] = molecular target: T2, hROR2-Fc (human ROR2 Fc fusion protein); experiment: SPR (Biacore X100), Fc-hROR2 captured on CM5 chip via mouse anti-human Fcγ mAb, Fab as analyte, 1:1 binding model

B1: 401×v9 ROR2×CD3 bispecific antibody (heterodimeric aglycosylated scFv-Fc) (bispecific antibody)
chain 1: DPMLTQTPSSTSTAVGDTVTIKCQASQSISSDLSWYQQKPGQRPKLLIYQASTLASGVPSRFKGSGYGTEYTLTISGVQREDAAIYYCLGGYADASYRTAFGGGTKLEIKGGGGSGGGGSGGGGSQSVKESEGGLFKPTDTLTLTCTVSGFSLSSYGVTWVRQAPGSGLEWIGYINTAGNTYYASWAKSRSTITRNTNENTVTLKMTSLTAADTATYFCARDWTSLNIWGPGTLVTVSSEPKSSDKTHTCPPCPAPELLGGPSVFLFPPKPKDTLMISRTPEVTCVVVDVSHEDPEVKFNWYVDGVEVHNAKTKPREEQYASTYRVVSVLTVLHQDWLNGKEYKCKVSNKALPAPIEKTISKAKGQPREPQVYTLPPCRDELTKNQVSLWCLVKGFYPSDIAVEWESNGQPENNYKTTPPVLDSDGSFFLYSKLTVDKSRWQQGNVFSCSVMHEALHNHYTQKSLSLSPGA
chain 2: EVQLVESGGGLVQPGGSLRLSCAASGYSFTGYTMNWVRQAPGKGLEWVALINPYKGVSTYNQKFKDRFTISVDKSKNTAYLQMNSLRAEDTAVYYCARSGYYGDSDWYFDVWGQGTLVTVSSGGGGSGGGGSGGGGSDIQMTQSPSSLSASVGDRVTITCRASQDIRNYLNWYQQKPGKAPKLLIYYTSRLESGVPSRFSGSGSGTDYTLTISSLQPEDFATYYCQQGNTLPWTFGQGTKVEIKEPKSSDKTHTCPPCPAPELLGGPSVFLFPPKPKDTLMISRTPEVTCVVVDVSHEDPEVKFNWYVDGVEVHNAKTKPREEQYASTYRVVSVLTVLHQDWLNGKEYKCKVSNKALPAPIEKTISKAKGQPREPQVCTLPPSRDELTKNQVSLSCAVKGFYPSDIAVEWESNGQPENNYKTTPPVLDSDGSFFLVSKLTVDKSRWQQGNVFSCSVMHEALHNHYTQKSLSLSPGA
specific lysis of 786-O cells by expanded primary T cells (E:T 10:1, 16 h), EC50 [1]: 0.19 µg/mL and 1.9 nM | binding result [2]: no binding

B2: hX3.12.6×v9 ROR2×CD3 bispecific antibody (heterodimeric aglycosylated scFv-Fc) (bispecific antibody)
chain 1: DPMLTQSPSSLSASVGDRVTITCQASQSISSDLSWYQQKPGKAPKLLIYQASTLASGVPSRFKGSGYGTEYTLTISSLQPEDFATYYCLGGYADASYRTAFGGGTKLEIKGGGGSGGGGSGGGGSEVQLVESGGGLVQPGGSLRLSCAASGFTFSSYGVTWVRQAPGKGLEWVSYINTAGNTYYASWAKSRFTISRDNAKNSLYLQMNSLRAEDTAVYYCARDDRWSLNIWGQGTLVTVSSEPKSSDKTHTCPPCPAPELLGGPSVFLFPPKPKDTLMISRTPEVTCVVVDVSHEDPEVKFNWYVDGVEVHNAKTKPREEQYASTYRVVSVLTVLHQDWLNGKEYKCKVSNKALPAPIEKTISKAKGQPREPQVYTLPPCRDELTKNQVSLWCLVKGFYPSDIAVEWESNGQPENNYKTTPPVLDSDGSFFLYSKLTVDKSRWQQGNVFSCSVMHEALHNHYTQKSLSLSPGA
chain 2: EVQLVESGGGLVQPGGSLRLSCAASGYSFTGYTMNWVRQAPGKGLEWVALINPYKGVSTYNQKFKDRFTISVDKSKNTAYLQMNSLRAEDTAVYYCARSGYYGDSDWYFDVWGQGTLVTVSSGGGGSGGGGSGGGGSDIQMTQSPSSLSASVGDRVTITCRASQDIRNYLNWYQQKPGKAPKLLIYYTSRLESGVPSRFSGSGSGTDYTLTISSLQPEDFATYYCQQGNTLPWTFGQGTKVEIKEPKSSDKTHTCPPCPAPELLGGPSVFLFPPKPKDTLMISRTPEVTCVVVDVSHEDPEVKFNWYVDGVEVHNAKTKPREEQYASTYRVVSVLTVLHQDWLNGKEYKCKVSNKALPAPIEKTISKAKGQPREPQVCTLPPSRDELTKNQVSLSCAVKGFYPSDIAVEWESNGQPENNYKTTPPVLDSDGSFFLVSKLTVDKSRWQQGNVFSCSVMHEALHNHYTQKSLSLSPGA
notes: ROR2 scFv on the knob Fc, v9 anti-CD3 scFv on the hole Fc, both N297A; also called hX3.12.6×V9 bi-mAb
specific lysis of 786-O cells by expanded primary T cells (E:T 10:1, 16 h), EC50 [1]: 0.21 µg/mL and 2.1 nM | binding result [2]: no binding

B3: hX3.12.5×v9 ROR2×CD3 bispecific antibody (heterodimeric aglycosylated scFv-Fc) (bispecific antibody)
chain 1: DPMLTQSPSSLSASVGDRVTITCQASQSISSDLSWYQQKPGKAPKLLIYQASTLASGVPSRFKGSGYGTEYTLTISSLQPEDFATYYCLGGYADASYRTAFGGGTKLEIKGGGGSGGGGSGGGGSEVQLVESGGGLIQPGGSLRLSCAASGFTVSSYGVTWVRQAPGKGLEWVSYINTAGNTYYASWAKSRFTISRDNSKNTLYLQMNSLRAEDTAVYYCARDDRWSLNIWGQGTLVTVSSEPKSSDKTHTCPPCPAPELLGGPSVFLFPPKPKDTLMISRTPEVTCVVVDVSHEDPEVKFNWYVDGVEVHNAKTKPREEQYASTYRVVSVLTVLHQDWLNGKEYKCKVSNKALPAPIEKTISKAKGQPREPQVYTLPPCRDELTKNQVSLWCLVKGFYPSDIAVEWESNGQPENNYKTTPPVLDSDGSFFLYSKLTVDKSRWQQGNVFSCSVMHEALHNHYTQKSLSLSPGA
chain 2: EVQLVESGGGLVQPGGSLRLSCAASGYSFTGYTMNWVRQAPGKGLEWVALINPYKGVSTYNQKFKDRFTISVDKSKNTAYLQMNSLRAEDTAVYYCARSGYYGDSDWYFDVWGQGTLVTVSSGGGGSGGGGSGGGGSDIQMTQSPSSLSASVGDRVTITCRASQDIRNYLNWYQQKPGKAPKLLIYYTSRLESGVPSRFSGSGSGTDYTLTISSLQPEDFATYYCQQGNTLPWTFGQGTKVEIKEPKSSDKTHTCPPCPAPELLGGPSVFLFPPKPKDTLMISRTPEVTCVVVDVSHEDPEVKFNWYVDGVEVHNAKTKPREEQYASTYRVVSVLTVLHQDWLNGKEYKCKVSNKALPAPIEKTISKAKGQPREPQVCTLPPSRDELTKNQVSLSCAVKGFYPSDIAVEWESNGQPENNYKTTPPVLDSDGSFFLVSKLTVDKSRWQQGNVFSCSVMHEALHNHYTQKSLSLSPGA
notes: ROR2 scFv on the knob Fc, v9 anti-CD3 scFv on the hole Fc, both N297A; also called hX3.12.5×V9 bi-mAb; hX3.12.5×CD3 bi-mAb
specific lysis of 786-O cells by expanded primary T cells (E:T 10:1, 16 h), EC50 [1]: 0.15 µg/mL and 1.5 nM | binding result [2]: no binding

B4: XBR2-401-hX3.12.5 Fab (affinity matured and humanized) (Fab, V domains shown)
VH: EVQLVESGGGLIQPGGSLRLSCAASGFTVSSYGVTWVRQAPGKGLEWVSYINTAGNTYYASWAKSRFTISRDNSKNTLYLQMNSLRAEDTAVYYCARDDRWSLNIWGQGTLVTVSS
VL: DPMLTQSPSSLSASVGDRVTITCQASQSISSDLSWYQQKPGKAPKLLIYQASTLASGVPSRFKGSGYGTEYTLTISSLQPEDFATYYCLGGYADASYRTAFGGGTKLEIK
notes: Fab expressed in E. coli
Kd [3]: 2.6 nM | binding result [4]: no binding | koff [5]: 0.00048 s⁻¹ | kon [5]: 190000 M⁻¹ s⁻¹

B5: XBR2-401-hX3.12.6 Fab (affinity matured and humanized) (Fab, V domains shown)
VH: EVQLVESGGGLVQPGGSLRLSCAASGFTFSSYGVTWVRQAPGKGLEWVSYINTAGNTYYASWAKSRFTISRDNAKNSLYLQMNSLRAEDTAVYYCARDDRWSLNIWGQGTLVTVSS
VL: DPMLTQSPSSLSASVGDRVTITCQASQSISSDLSWYQQKPGKAPKLLIYQASTLASGVPSRFKGSGYGTEYTLTISSLQPEDFATYYCLGGYADASYRTAFGGGTKLEIK
notes: Fab expressed in E. coli
Kd [3]: 3.8 nM | binding result [4]: no binding | koff [5]: 0.00022 s⁻¹ | kon [5]: 60000 M⁻¹ s⁻¹

B6: h401.6 Fab (hX3.12.6 framework regions with parental 401 CDR sequences) (Fab, V domains shown)
VH: EVQLVESGGGLVQPGGSLRLSCAASGFTFSSYGVTWVRQAPGKGLEWVSYINTAGNTYYASWAKSRFTISRDNAKNSLYLQMNSLRAEDTAVYYCARDWTSLNIWGQGTLVTVSS
VL: DPMLTQSPSSLSASVGDRVTITCQASQSISSDLSWYQQKPGKAPKLLIYQASTLASGVPSRFKGSGYGTEYTLTISSLQPEDFATYYCLGGYADASYRTAFGGGTKLEIK
notes: this is an inference
Kd [3]: 16 nM | binding result [4]: no binding | koff [5]: 0.00023 s⁻¹ | kon [5]: 14000 M⁻¹ s⁻¹
